Experimental data: patent US20110213019, “Compositions and Methods for Treating Cancer, Inhibiting Proliferation, and Inducing Cell Death” (UNIVERSITY OF LOUISVILLE RESEARCH FOUNDATION, INC., published 2011)

Key:
alpha-enolase = alpha-enolase (UniProt P06733 P06733:2-434); assay: EMSA; strong binding; supershifted by alpha-enolase polyclonal antibody; settings: parallel G4
Description: (§1) EMSAs were used to characterize the binding of α-enolase and MBP-1 to the c-myc quadruplex-forming sequence. […] The quadruplex oligonucleotide aptamer, GRO29A, competed for α-enolase and MBP-1 binding to PU27. […] A mutation in the PU27 sequence, which prevents quadruplex formation, abrogated binding of both α-enolase and MBP-1. MBP-1 also binds to a downstream site in the P2 promoter.

[1] = molecular target: MBP-1 (alternative translation product of alpha-enolase) (UniProt P06733-2 P06733-2:1-341); assay: as above; settings: parallel G4
Description: as §1

Chain of alpha-enolase (P06733 2-434, one chain of several): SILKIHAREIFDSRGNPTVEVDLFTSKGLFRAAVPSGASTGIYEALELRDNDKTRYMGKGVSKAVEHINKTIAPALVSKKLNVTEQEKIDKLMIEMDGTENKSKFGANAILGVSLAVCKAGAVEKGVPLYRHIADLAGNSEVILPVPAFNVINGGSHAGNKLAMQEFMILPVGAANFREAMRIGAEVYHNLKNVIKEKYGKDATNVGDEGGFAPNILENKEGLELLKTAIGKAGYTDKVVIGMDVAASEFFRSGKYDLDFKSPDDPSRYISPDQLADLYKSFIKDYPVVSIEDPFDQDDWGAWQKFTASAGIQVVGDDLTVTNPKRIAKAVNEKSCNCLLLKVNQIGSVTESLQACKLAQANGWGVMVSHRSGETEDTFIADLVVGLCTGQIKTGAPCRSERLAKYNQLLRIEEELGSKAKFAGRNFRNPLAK
Chain of MBP-1 (alternative translation product of alpha-enolase) (P06733 94-434, one chain of several): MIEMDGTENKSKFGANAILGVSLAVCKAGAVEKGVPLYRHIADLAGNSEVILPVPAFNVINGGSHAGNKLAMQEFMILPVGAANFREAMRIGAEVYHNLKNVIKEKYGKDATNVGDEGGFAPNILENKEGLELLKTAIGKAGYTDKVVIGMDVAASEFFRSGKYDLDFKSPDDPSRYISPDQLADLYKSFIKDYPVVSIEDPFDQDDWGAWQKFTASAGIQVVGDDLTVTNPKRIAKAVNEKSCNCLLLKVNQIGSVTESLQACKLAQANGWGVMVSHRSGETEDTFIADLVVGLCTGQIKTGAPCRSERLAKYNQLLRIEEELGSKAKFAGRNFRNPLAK

Does TGGGGAGGGTGGGGAGGGTGGGGAAGG (structured_DNA) [PU27 (c-Myc promoter quadruplex)] bind (alpha-enolase)?
Result: binds

Does TGGGGAGGGTGGGGAGGGTGGGGAAGG (structured_DNA) [PU27 (c-Myc promoter quadruplex)] bind [1]?
Result: binds
